Data reported in patent US20230065562A1, “DUAL CONTROLS FOR THERAPEUTIC CELL ACTIVATION OR ELIMINATION” (Bellicum Pharmaceuticals, Inc., priority 2015, published 2023).
“Also recorded” adds a separate entry of the source.

System: HEK293T/16 cells
Experiment: Secreted alkaline phosphatase (SEAP)-based surrogate killing assay of iCasp9 mutants
Assay type: cell-based, human
Details: SEAP assay without AP1903
Method: Early passage HEK293T/16 cells (ATCC, Manassas, Va.) were maintained in IMDM, GlutaMAX™ (Life Technologies, Carlsbad, Calif.) supplemented with 10% FBS, 100 U/mL penicillin, and 100 […] until transfection in a humidified, 37° C., 5% CO2/95% air atmosphere. Cells in logarithmic-phase growth were transiently transfected with 800 ng to 2 μg of expression plasmid encoding iCasp9 mutants and 500 ng of an expression plasmid encoding SRα promoter driven SEAP per million cells in 15-mL conical tubes. […] GeneJammer® Transfection Reagent at a ratio of 3 μl per ug of plasmid DNA was used to transiently transfect HEK293T/16 cells in the absence of antibiotics. 100 μl or 2 mL of the transfection mixture was added to each well in 96-well or 6-well plate, respectively.
Briefly, after 65° C. heat denaturation for 45 minutes to reduce background caused by endogenous (and serum-derived) alkaline phosphatases that are sensitive to heat, 5 μl of supernatants was added to 95 μl of PBS and added to 100 μl of substrate buffer, containing 1 μl of 100 mM 4-methylumbelliferyl phosphate (4-MUP; Sigma, St. Louis, Mo.) re-suspended in 2 M diethanolamine. Hydrolysis of 4-MUP by SEAP produces a fluorescent […] with excitation/emission (355/460 nm), which can be easily measured. Assays were performed in black opaque 96-well plates to minimize fluorescence leakage between wells. […] of the mixture was seeded onto each well of a 96-well plate. […] For the assay, 4-methylumbelliferyl phosphate substrate was hydrolyzed by SEAP to 4-methylumbelliferon, a metabolite that can be excited with 364 nm and detected with an emission filter of 448 nm. Since SEAP is used as a marker for cell viability, reduced SEAP reading corresponds with increased iCaspase-9 activities.

Molecule | Basal Activity (relative to wild type/unmodified Caspase-9) | Basal Activity (relative to wild type/unmodified Caspase-9) (listed as G4021) | Basal Activity (relative to wild type/unmodified Caspase-9) (listed as D315)
G402I: modified iCasp9, G402I (protein, UniProt P55211 1-416, looked up, variant G402I, FKBP12-F36V fusion (iCasp9), CARD deleted) MDEADRRLLRRCRLRLVEELQVDQLWDALLSRELFRPHMIEDIQRAGSGSRRDQARQLIIDLETRGSQALPLFISCLEDTGQDMLASFLRTNRQAAKLSKPTLENLTPVVLRPEIRKPEVLRPETPRPVDIGSGGFGDVGALESLRGNADLAYILSMEPCGHCLIINNVNFCRESGLRTRTGSNIDCEKLRRRFSSLHFMVEVKGDLTAKKMVLALLELAQQDHGALDCCVVVILSHGCQASHLQFPGAVYGTDGCPVSVEKIVNIFNGTSCPSLGGKPKLFFIQACGGEQKDHGFEVASTSPEDESPGSNPEPDATPFQEGLRTFDQLDAISSLPTPSDIFVSYSTFPGFVSWRDPKSGSWYVETLDDIFEQWAHSEDLQSLLLRVANAVSVKGIYKQMPICFNFLRKKLFFKTS | dead | catalytically inactive | 
G402Y: modified iCasp9, G402Y (protein, UniProt P55211 1-416, looked up, variant G402Y, FKBP12-F36V fusion (iCasp9), CARD deleted) MDEADRRLLRRCRLRLVEELQVDQLWDALLSRELFRPHMIEDIQRAGSGSRRDQARQLIIDLETRGSQALPLFISCLEDTGQDMLASFLRTNRQAAKLSKPTLENLTPVVLRPEIRKPEVLRPETPRPVDIGSGGFGDVGALESLRGNADLAYILSMEPCGHCLIINNVNFCRESGLRTRTGSNIDCEKLRRRFSSLHFMVEVKGDLTAKKMVLALLELAQQDHGALDCCVVVILSHGCQASHLQFPGAVYGTDGCPVSVEKIVNIFNGTSCPSLGGKPKLFFIQACGGEQKDHGFEVASTSPEDESPGSNPEPDATPFQEGLRTFDQLDAISSLPTPSDIFVSYSTFPGFVSWRDPKSGSWYVETLDDIFEQWAHSEDLQSLLLRVANAVSVKGIYKQMPYCFNFLRKKLFFKTS | catalytically inactive and dead |  | 
C403P: modified iCasp9, C403P (protein, UniProt P55211 1-416, looked up, variant C403P, FKBP12-F36V fusion (iCasp9), CARD deleted) MDEADRRLLRRCRLRLVEELQVDQLWDALLSRELFRPHMIEDIQRAGSGSRRDQARQLIIDLETRGSQALPLFISCLEDTGQDMLASFLRTNRQAAKLSKPTLENLTPVVLRPEIRKPEVLRPETPRPVDIGSGGFGDVGALESLRGNADLAYILSMEPCGHCLIINNVNFCRESGLRTRTGSNIDCEKLRRRFSSLHFMVEVKGDLTAKKMVLALLELAQQDHGALDCCVVVILSHGCQASHLQFPGAVYGTDGCPVSVEKIVNIFNGTSCPSLGGKPKLFFIQACGGEQKDHGFEVASTSPEDESPGSNPEPDATPFQEGLRTFDQLDAISSLPTPSDIFVSYSTFPGFVSWRDPKSGSWYVETLDDIFEQWAHSEDLQSLLLRVANAVSVKGIYKQMPGPFNFLRKKLFFKTS | catalytically inactive and dead |  | 
D315A: modified iCasp9, D315A (auto-proteolysis site) (protein, UniProt P55211 1-416, looked up, variant D315A, FKBP12-F36V fusion (iCasp9), CARD deleted) MDEADRRLLRRCRLRLVEELQVDQLWDALLSRELFRPHMIEDIQRAGSGSRRDQARQLIIDLETRGSQALPLFISCLEDTGQDMLASFLRTNRQAAKLSKPTLENLTPVVLRPEIRKPEVLRPETPRPVDIGSGGFGDVGALESLRGNADLAYILSMEPCGHCLIINNVNFCRESGLRTRTGSNIDCEKLRRRFSSLHFMVEVKGDLTAKKMVLALLELAQQDHGALDCCVVVILSHGCQASHLQFPGAVYGTDGCPVSVEKIVNIFNGTSCPSLGGKPKLFFIQACGGEQKDHGFEVASTSPEDESPGSNPEPAATPFQEGLRTFDQLDAISSLPTPSDIFVSYSTFPGFVSWRDPKSGSWYVETLDDIFEQWAHSEDLQSLLLRVANAVSVKGIYKQMPGCFNFLRKKLFFKTS | Decreased |  | reduced basal activity
D327G: modified iCasp9, D327G (protein) VDGFGDVGALESLRGNADLAYILSMEPCGHCLIINNVNFCRESGLRTRTGSNIDCEKLRRRFSSLHFMVEVKGDLTAKKMVLALLELARQDHGALDCCVVVILSHGCQASHLQFPGAVYGTDGCPVSVEKIVNIFNGTSCPSLGGKPKLFFIQACGGEQKDHGFEVASTSPEDESPGSNPEPDATPFQEGLRTFGQLDAISSLPTPSDIFVSYSTFPGFVSWRDPKSGSWYVETLDDIFEQWAHSEDLQSLLLRVANAVSVKGIYKQMPGCFNFLRKKLFFKTSASRA | did not lower basal activity; also recorded: Increased |  | 
D327K: modified iCasp9, D327K (protein) VDGFGDVGALESLRGNADLAYILSMEPCGHCLIINNVNFCRESGLRTRTGSNIDCEKLRRRFSSLHFMVEVKGDLTAKKMVLALLELARQDHGALDCCVVVILSHGCQASHLQFPGAVYGTDGCPVSVEKIVNIFNGTSCPSLGGKPKLFFIQACGGEQKDHGFEVASTSPEDESPGSNPEPDATPFQEGLRTFKQLDAISSLPTPSDIFVSYSTFPGFVSWRDPKSGSWYVETLDDIFEQWAHSEDLQSLLLRVANAVSVKGIYKQMPGCFNFLRKKLFFKTSASRA | did not lower basal activity; also recorded: Increased |  | 
D327R: modified iCasp9, D327R (protein) VDGFGDVGALESLRGNADLAYILSMEPCGHCLIINNVNFCRESGLRTRTGSNIDCEKLRRRFSSLHFMVEVKGDLTAKKMVLALLELARQDHGALDCCVVVILSHGCQASHLQFPGAVYGTDGCPVSVEKIVNIFNGTSCPSLGGKPKLFFIQACGGEQKDHGFEVASTSPEDESPGSNPEPDATPFQEGLRTFRQLDAISSLPTPSDIFVSYSTFPGFVSWRDPKSGSWYVETLDDIFEQWAHSEDLQSLLLRVANAVSVKGIYKQMPGCFNFLRKKLFFKTSASRA | did not lower basal activity; also recorded: Increased |  | 
F326K: modified iCasp9, F326K (protein) VDGFGDVGALESLRGNADLAYILSMEPCGHCLIINNVNFCRESGLRTRTGSNIDCEKLRRRFSSLHFMVEVKGDLTAKKMVLALLELARQDHGALDCCVVVILSHGCQASHLQFPGAVYGTDGCPVSVEKIVNIFNGTSCPSLGGKPKLFFIQACGGEQKDHGFEVASTSPEDESPGSNPEPDATPFQEGLRTKDQLDAISSLPTPSDIFVSYSTFPGFVSWRDPKSGSWYVETLDDIFEQWAHSEDLQSLLLRVANAVSVKGIYKQMPGCFNFLRKKLFFKTSASRA | did not lower basal activity; also recorded: Increased |  | 
Q328K: modified iCasp9, Q328K (protein) VDGFGDVGALESLRGNADLAYILSMEPCGHCLIINNVNFCRESGLRTRTGSNIDCEKLRRRFSSLHFMVEVKGDLTAKKMVLALLELARQDHGALDCCVVVILSHGCQASHLQFPGAVYGTDGCPVSVEKIVNIFNGTSCPSLGGKPKLFFIQACGGEQKDHGFEVASTSPEDESPGSNPEPDATPFQEGLRTFDKLDAISSLPTPSDIFVSYSTFPGFVSWRDPKSGSWYVETLDDIFEQWAHSEDLQSLLLRVANAVSVKGIYKQMPGCFNFLRKKLFFKTSASRA | did not lower basal activity; also recorded: Increased |  | 
Q328R: modified iCasp9, Q328R (protein) VDGFGDVGALESLRGNADLAYILSMEPCGHCLIINNVNFCRESGLRTRTGSNIDCEKLRRRFSSLHFMVEVKGDLTAKKMVLALLELARQDHGALDCCVVVILSHGCQASHLQFPGAVYGTDGCPVSVEKIVNIFNGTSCPSLGGKPKLFFIQACGGEQKDHGFEVASTSPEDESPGSNPEPDATPFQEGLRTFDRLDAISSLPTPSDIFVSYSTFPGFVSWRDPKSGSWYVETLDDIFEQWAHSEDLQSLLLRVANAVSVKGIYKQMPGCFNFLRKKLFFKTSASRA | did not lower basal activity; also recorded: Increased |  | 
L329K: modified iCasp9, L329K (protein) VDGFGDVGALESLRGNADLAYILSMEPCGHCLIINNVNFCRESGLRTRTGSNIDCEKLRRRFSSLHFMVEVKGDLTAKKMVLALLELARQDHGALDCCVVVILSHGCQASHLQFPGAVYGTDGCPVSVEKIVNIFNGTSCPSLGGKPKLFFIQACGGEQKDHGFEVASTSPEDESPGSNPEPDATPFQEGLRTFDQKDAISSLPTPSDIFVSYSTFPGFVSWRDPKSGSWYVETLDDIFEQWAHSEDLQSLLLRVANAVSVKGIYKQMPGCFNFLRKKLFFKTSASRA | did not lower basal activity; also recorded: Increased |  | 
L329G: modified iCasp9, L329G (protein) VDGFGDVGALESLRGNADLAYILSMEPCGHCLIINNVNFCRESGLRTRTGSNIDCEKLRRRFSSLHFMVEVKGDLTAKKMVLALLELARQDHGALDCCVVVILSHGCQASHLQFPGAVYGTDGCPVSVEKIVNIFNGTSCPSLGGKPKLFFIQACGGEQKDHGFEVASTSPEDESPGSNPEPDATPFQEGLRTFDQGDAISSLPTPSDIFVSYSTFPGFVSWRDPKSGSWYVETLDDIFEQWAHSEDLQSLLLRVANAVSVKGIYKQMPGCFNFLRKKLFFKTSASRA | did not lower basal activity; also recorded: Increased |  | 
